Results as given in paper PMC2720063 (Biochemistry, 2009).

Target: T1, Ror2(518–525) peptide (human)
T1 chain: REEFRHEA
Assay: crystal structure

B1: PFA1 Fab (Fab fragment of the monoclonal anti-Aβ antibody PFA1, Protofibril antibody 1) (Fab, V domains shown)
VH: QVTLKESGPGILKPSQTLSLTCSFSGFSLSTSGMGVGWIRQPSGKGLEWLAHIWWDDDRSYNPSLKSQLTISKDAARNQVFLRITSVDTADTATYYCVRRAHTTVLGDWFAYWGQGTLVTVSA
VL: DVLMTQTPLSLPVSLGDQASISCRSSQSIVHSNGNTYLEWYLQKPGQSPKLLIYKVSNRFSGVPDRFSGSGSGTDFTLKISRVEAEDLGVYYCFQGSHVPLTFGAGTKLELK
- binding result: binds
